Consider 21 variants from IntAct's records for PubMed 20534488.

Sequences and labels used below:
B1: Ras-related protein Rab-5C (Homo sapiens), P51148 (parent)
chain: MAGRGGAARPNGPAAGNKICQFKLVLLGESAVGKSSLVLRFVKGQFHEYQESTIGAAFLTQTVCLDDTTVKFEIWDTAGQERYHSLAPMYYRGAQAAIVVYDITNTDTFARAKNWVKELQRQASPNIVIALAGNKADLASKRAVEFQEAQAYADDNSLLFMETSAKTAMNVNEIFMAIAKKLPKNEPQNATGAPGRNRGVDLQENNPASRSQCCSN
B2: Ras-related protein Rab-5A (Homo sapiens), P20339-1 (parent)
chain: MASRGATRPNGPNTGNKICQFKLVLLGESAVGKSSLVLRFVKGQFHEFQESTIGAAFLTQTVCLDDTTVKFEIWDTAGQERYHSLAPMYYRGAQAAIVVYDITNEESFARAKNWVKELQRQASPNIVIALSGNKADLANKRAVDFQEAQSYADDNSLLFMETSAKTSMNVNEIFMAIAKKLPKNEPQNPGANSARGRGVDLTEPTQPTRNQCCSN
B3: Ras-related protein Rab-5C (Homo sapiens), P51148 (parent)
chain: B1 chain
partner: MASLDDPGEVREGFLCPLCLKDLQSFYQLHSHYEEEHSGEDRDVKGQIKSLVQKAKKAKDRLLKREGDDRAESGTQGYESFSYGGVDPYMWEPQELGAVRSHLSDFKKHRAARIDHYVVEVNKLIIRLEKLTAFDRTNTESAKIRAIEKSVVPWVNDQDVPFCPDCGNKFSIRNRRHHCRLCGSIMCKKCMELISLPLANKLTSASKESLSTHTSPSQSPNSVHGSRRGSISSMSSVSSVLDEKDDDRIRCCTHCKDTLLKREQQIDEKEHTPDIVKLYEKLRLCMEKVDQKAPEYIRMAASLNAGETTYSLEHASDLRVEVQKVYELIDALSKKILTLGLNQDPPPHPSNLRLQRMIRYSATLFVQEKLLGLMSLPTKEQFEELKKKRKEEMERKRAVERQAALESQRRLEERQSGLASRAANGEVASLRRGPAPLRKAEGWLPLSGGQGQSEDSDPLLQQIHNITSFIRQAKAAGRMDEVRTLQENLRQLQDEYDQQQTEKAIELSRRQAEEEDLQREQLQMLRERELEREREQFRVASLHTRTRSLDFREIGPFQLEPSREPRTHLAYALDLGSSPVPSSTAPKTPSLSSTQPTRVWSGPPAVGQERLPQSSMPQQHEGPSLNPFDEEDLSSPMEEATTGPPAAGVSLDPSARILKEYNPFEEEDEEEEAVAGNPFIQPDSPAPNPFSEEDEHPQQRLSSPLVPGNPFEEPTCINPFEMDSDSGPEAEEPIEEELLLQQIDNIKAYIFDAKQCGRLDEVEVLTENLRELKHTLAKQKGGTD

The variants in the first assay derive from B1. As to conditions: with eea1_human EEA1, Q15075.
Sequence of eea1_human EEA1, Q15075 (Q15075 whole entry): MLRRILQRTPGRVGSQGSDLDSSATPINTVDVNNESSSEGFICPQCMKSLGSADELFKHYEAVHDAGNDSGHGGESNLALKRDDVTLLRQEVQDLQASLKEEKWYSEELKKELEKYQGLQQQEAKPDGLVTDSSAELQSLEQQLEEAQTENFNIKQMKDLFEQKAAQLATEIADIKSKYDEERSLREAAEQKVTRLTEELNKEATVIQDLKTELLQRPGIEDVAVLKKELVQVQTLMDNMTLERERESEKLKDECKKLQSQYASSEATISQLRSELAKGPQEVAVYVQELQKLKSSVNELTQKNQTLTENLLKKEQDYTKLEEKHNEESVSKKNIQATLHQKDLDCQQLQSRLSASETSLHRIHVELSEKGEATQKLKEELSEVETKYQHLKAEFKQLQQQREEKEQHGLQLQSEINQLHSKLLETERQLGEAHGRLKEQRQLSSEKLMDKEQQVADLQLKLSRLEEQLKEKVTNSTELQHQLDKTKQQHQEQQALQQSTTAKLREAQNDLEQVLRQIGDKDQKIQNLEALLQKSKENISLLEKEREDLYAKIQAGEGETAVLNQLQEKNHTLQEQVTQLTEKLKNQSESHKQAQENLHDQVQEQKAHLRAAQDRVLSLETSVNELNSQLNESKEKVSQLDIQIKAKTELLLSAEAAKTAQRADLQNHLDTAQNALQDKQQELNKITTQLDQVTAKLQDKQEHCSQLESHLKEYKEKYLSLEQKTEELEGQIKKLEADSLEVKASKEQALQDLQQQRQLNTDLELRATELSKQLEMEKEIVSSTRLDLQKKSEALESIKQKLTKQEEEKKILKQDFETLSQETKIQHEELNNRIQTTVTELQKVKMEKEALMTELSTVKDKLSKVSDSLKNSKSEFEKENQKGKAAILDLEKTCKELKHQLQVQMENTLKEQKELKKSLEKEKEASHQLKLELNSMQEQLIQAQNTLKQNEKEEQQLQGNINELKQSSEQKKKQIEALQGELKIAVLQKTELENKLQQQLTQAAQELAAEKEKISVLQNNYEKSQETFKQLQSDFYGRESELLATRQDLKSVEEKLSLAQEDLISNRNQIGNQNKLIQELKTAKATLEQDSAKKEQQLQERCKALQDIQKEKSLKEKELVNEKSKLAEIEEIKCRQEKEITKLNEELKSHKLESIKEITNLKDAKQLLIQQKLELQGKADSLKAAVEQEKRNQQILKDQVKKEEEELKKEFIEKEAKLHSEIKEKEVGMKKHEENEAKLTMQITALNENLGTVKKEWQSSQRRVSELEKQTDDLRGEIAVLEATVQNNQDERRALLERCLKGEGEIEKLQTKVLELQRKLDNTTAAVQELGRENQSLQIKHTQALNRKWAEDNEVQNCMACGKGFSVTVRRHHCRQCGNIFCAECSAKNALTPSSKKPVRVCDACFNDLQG
Consider MAGRGGAARPNGPAAGNKICQFKLVLLGESAVGKSSLVLRFVKGQFHEYQESTIGADFLTQTVCLDDTTVKFEIWDTAGQERYHSLAPMYYRGAQAAIVVYDITNTDTFARAKNWVKELQRQASPNIVIALAGNKADLASKRAVEFQEAQAYADDNSLLFMETSAKTAMNVNEIFMAIAKKLPKNEPQNATGAPGRNRGVDLQENNPASRSQCCSN [A57D], for which the “effect of a mutation on the interaction” value was “decreasing interaction strength”.

Take MAGRGGAARPNGPAAGNKICQFKLVLLGESAVGKSSLVLRFVKGQFHEYQESTIGAEFLTQTVCLDDTTVKFEIWDTAGQERYHSLAPMYYRGAQAAIVVYDITNTDTFARAKNWVKELQRQASPNIVIALAGNKADLASKRAVEFQEAQAYADDNSLLFMETSAKTAMNVNEIFMAIAKKLPKNEPQNATGAPGRNRGVDLQENNPASRSQCCSN [A57E]: the “effect of a mutation on the interaction” value is “disrupting interaction strength”.

As to MAGRGGAARPNGPAAGNKICQFKLVLLGESAVGKSSLVLRFVKGQFHEYQESTIGASFLTQTVCLDDTTVKFEIWDTAGQERYHSLAPMYYRGAQAAIVVYDITNTDTFARAKNWVKELQRQASPNIVIALAGNKADLASKRAVEFQEAQAYADDNSLLFMETSAKTAMNVNEIFMAIAKKLPKNEPQNATGAPGRNRGVDLQENNPASRSQCCSN [A57S], the “effect of a mutation on the interaction” value is “disrupting interaction strength”.

Take MAGRGGAARPNGPAAGNKICQFKLVLLGESAVGKSSLVLRFVKGQFHEYQESTIQAAFLTQTVCLDDTTVKFEIWDTAGQERYHSLAPMYYRGAQAAIVVYDITNTDTFARAKNWVKELQRQASPNIVIALAGNKADLASKRAVEFQEAQAYADDNSLLFMETSAKTAMNVNEIFMAIAKKLPKNEPQNATGAPGRNRGVDLQENNPASRSQCCSN [G55Q]: the “effect of a mutation on the interaction” value is reported as “disrupting interaction strength”.

Consider MAGRGGAARPNGPAAGNKICQFKLVLLGESAVGKSSLVLRFVKGQFHEYQESTIGAAFLTQTVCLDDTTVKFEIWDTAGQERYHSLAPSYYRGAQAAIVVYDITNTDTFARAKNWVKELQRQASPNIVIALAGNKADLASKRAVEFQEAQAYADDNSLLFMETSAKTAMNVNEIFMAIAKKLPKNEPQNATGAPGRNRGVDLQENNPASRSQCCSN [M89S], for which the “effect of a mutation on the interaction” value is listed as “disrupting interaction strength”.

Turning to MAGRGGAARPNGPAAGNKICQFKLVLLGESAVGKSSLVLRFVKGQFHEYQESTIGAAFLTQTVCLDDTTVKFEIWDTAGQERYHSLAPAYYRGAQAAIVVYDITNTDTFARAKNWVKELQRQASPNIVIALAGNKADLASKRAVEFQEAQAYADDNSLLFMETSAKTAMNVNEIFMAIAKKLPKNEPQNATGAPGRNRGVDLQENNPASRSQCCSN [M89A], the “effect of a mutation on the interaction” value is on record as “disrupting interaction strength”.

The next assay covers variants of B2. The note with it: with eea1_human EEA1, Q15075.
In the case of MASRGATRPNGPNTGNKICQFKLVLLGESAVGKSSLVLRFVKGQFHEFQESTIGAAFLTQTVCLDDTTVKFEIWDTAGLERYHSLAPMYYRGAQAAIVVYDITNEESFARAKNWVKELQRQASPNIVIALSGNKADLANKRAVDFQEAQSYADDNSLLFMETSAKTSMNVNEIFMAIAKKLPKNEPQNPGANSARGRGVDLTEPTQPTRNQCCSN [Q79L], the “effect of a mutation on the interaction” value is reported as “with no effect”.

Another assay covers variants of B3. As to conditions: with rbns5_human RBSN.
Take MAGRGGAARPNGPAAGNKICQFKLVLLGESAVGKSSLVLRFVKGQFHEYQESTIGAAFMTQTVCLDDTTVKFEIWDTAGQERYHSLAPMYYRGAQAAIVVYDITNTDTFARAKNWVKELQRQASPNIVIALAGNKADLASKRAVEFQEAQAYADDNSLLFMETSAKTAMNVNEIFMAIAKKLPKNEPQNATGAPGRNRGVDLQENNPASRSQCCSN [L59M]: the “effect of a mutation on the interaction” value was “with no effect”.

Turning to MAGRGGAARPNGPAAGNKICQFKLVLLGESAVGKSSLVLRFVKGQFHEYQESTIGAAFLTQTVCLDDTTVKFEIWDTAGQERYHSLAPMYYRGSQAAIVVYDITNTDTFARAKNWVKELQRQASPNIVIALAGNKADLASKRAVEFQEAQAYADDNSLLFMETSAKTAMNVNEIFMAIAKKLPKNEPQNATGAPGRNRGVDLQENNPASRSQCCSN [A94S], the “effect of a mutation on the interaction” value is given as “increasing interaction strength”.

As for MAGRGGAARPNGPAAGNKICQFKLVLLGESAVGKSSLVLRFVEGQFHEYQESTIGAAFLTQTVCLDDTTVKFEIWDTAGQERYHSLAPMYYRGAQAAIVVYDITNTDTFARAKNWVKELQRQASPNIVIALAGNKADLASKRAVEFQEAQAYADDNSLLFMETSAKTAMNVNEIFMAIAKKLPKNEPQNATGAPGRNRGVDLQENNPASRSQCCSN [K43E], the “effect of a mutation on the interaction” value is on record as “disrupting interaction strength”.

As for MAGRGGAARPNGPAAGNKICQFKLVLLGESAVGKSSLVLRFVKGQFHEYQESTIGAAFLTQTVCLDDTTVKFLIWDTAGQERYHSLAPMYYRGAQAAIVVYDITNTDTFARAKNWVKELQRQASPNIVIALAGNKADLASKRAVEFQEAQAYADDNSLLFMETSAKTAMNVNEIFMAIAKKLPKNEPQNATGAPGRNRGVDLQENNPASRSQCCSN [E73L], the “effect of a mutation on the interaction” value is given as “with no effect”.

Consider MAGRGGAARPNGPAAGNKICQFKLVLLGESAVGKSSLVLRFVKGQFHEYQEPTIGAAFLTQTVCLDDTTVKFEIWDTAGQERYHSLAPMYYRGAQAAIVVYDITNTDTFARAKNWVKELQRQASPNIVIALAGNKADLASKRAVEFQEAQAYADDNSLLFMETSAKTAMNVNEIFMAIAKKLPKNEPQNATGAPGRNRGVDLQENNPASRSQCCSN [S52P], for which the “effect of a mutation on the interaction” value was “decreasing interaction strength”.

Consider MAGRGGAARPNGPAAGNKICQFKLVLLGESAVGKSSLVLRFVKGQFHEYQESTIGAAFLTQTVCLDDTTVKFEIWDTAGQERYRSLAPMYYRGAQAAIVVYDITNTDTFARAKNWVKELQRQASPNIVIALAGNKADLASKRAVEFQEAQAYADDNSLLFMETSAKTAMNVNEIFMAIAKKLPKNEPQNATGAPGRNRGVDLQENNPASRSQCCSN [H84R], for which the “effect of a mutation on the interaction” value is given as “decreasing interaction strength”.

For MAGRGGAARPNGPAAGNKICQFKLVLLGESAVGKSSLVLRFVKGQFHEYQESTIGAAFLTQTVCLDDTTVKFEIWDTAGQERFHSLAPMYYRGAQAAIVVYDITNTDTFARAKNWVKELQRQASPNIVIALAGNKADLASKRAVEFQEAQAYADDNSLLFMETSAKTAMNVNEIFMAIAKKLPKNEPQNATGAPGRNRGVDLQENNPASRSQCCSN [Y83F], the “effect of a mutation on the interaction” value was “with no effect”.

As for MAGRGGAARPNGPAAGNKICQFKLVLLGESAVGKSSLVLRFVKGQFHEYIESTIGAAFLTQTVCLDDTTVKFEIWDTAGQERYHSLAPMYYRGAQAAIVVYDITNTDTFARAKNWVKELQRQASPNIVIALAGNKADLASKRAVEFQEAQAYADDNSLLFMETSAKTAMNVNEIFMAIAKKLPKNEPQNATGAPGRNRGVDLQENNPASRSQCCSN [Q50I], the “effect of a mutation on the interaction” value is recorded as “with no effect”.

Consider MAGRGGAARPNGPAAGNKICQFKLVLLGESAVGKSSLVLRFVKGQFHEYQESTIGASFLTQTVCLDDTTVKFEIWDTAGQERYHSLAPMYYRGAQAAIVVYDITNTDTFARAKNWVKELQRQASPNIVIALAGNKADLASKRAVEFQEAQAYADDNSLLFMETSAKTAMNVNEIFMAIAKKLPKNEPQNATGAPGRNRGVDLQENNPASRSQCCSN [A57S], for which the “effect of a mutation on the interaction” value is given as “decreasing interaction strength”.

Regarding MAGRGGAARPNGPAAGNKICQFKLVLLGESAVGKSSLVLRFVKGQFHEYQESTIGADFLTQTVCLDDTTVKFEIWDTAGQERYHSLAPMYYRGAQAAIVVYDITNTDTFARAKNWVKELQRQASPNIVIALAGNKADLASKRAVEFQEAQAYADDNSLLFMETSAKTAMNVNEIFMAIAKKLPKNEPQNATGAPGRNRGVDLQENNPASRSQCCSN [A57D], the “effect of a mutation on the interaction” value is “disrupting interaction strength”.

For MAGRGGAARPNGPAAGNKICQFKLVLLGESAVGKSSLVLRFVKGQFHPYQESTIGAAFLTQTVCLDDTTVKFEIWDTAGQERYHSLAPMYYRGAQAAIVVYDITNTDTFARAKNWVKELQRQASPNIVIALAGNKADLASKRAVEFQEAQAYADDNSLLFMETSAKTAMNVNEIFMAIAKKLPKNEPQNATGAPGRNRGVDLQENNPASRSQCCSN [E48P], the “effect of a mutation on the interaction” value is given as “with no effect”.

With MAGRGGAARPNGPAAGNKICQFKLVLLGESAVGKSSLVLRFVKGQFHEYQESTIGAAFLTKTVCLDDTTVKFEIWDTAGQERYHSLAPMYYRGAQAAIVVYDITNTDTFARAKNWVKELQRQASPNIVIALAGNKADLASKRAVEFQEAQAYADDNSLLFMETSAKTAMNVNEIFMAIAKKLPKNEPQNATGAPGRNRGVDLQENNPASRSQCCSN [Q61K], the “effect of a mutation on the interaction” value is reported as “with no effect”.

As for MAGRGGAARPNGPAAGNKICQFKLVLLGESAVGKSSLVLRFVKGQFHEYQNSTIGAAFLTQTVCLDDTTVKFEIWDTAGQERYHSLAPMYYRGAQAAIVVYDITNTDTFARAKNWVKELQRQASPNIVIALAGNKADLASKRAVEFQEAQAYADDNSLLFMETSAKTAMNVNEIFMAIAKKLPKNEPQNATGAPGRNRGVDLQENNPASRSQCCSN [E51N], the “effect of a mutation on the interaction” value was “decreasing interaction strength”.

Consider MAGRGGAARPNGPAAGNKICQFKLVLLGESAVGKSSLVLRFVKGQFHENQESTIGAAFLTQTVCLDDTTVKFEIWDTAGQERYHSLAPMYYRGAQAAIVVYDITNTDTFARAKNWVKELQRQASPNIVIALAGNKADLASKRAVEFQEAQAYADDNSLLFMETSAKTAMNVNEIFMAIAKKLPKNEPQNATGAPGRNRGVDLQENNPASRSQCCSN [Y49N], for which the “effect of a mutation on the interaction” value is listed as “with no effect”.
